Results published in US20260250318A1, “COMPOSITIONS AND METHODS FOR CROSSING THE BLOOD BRAIN BARRIER” (VOYAGER THERAPEUTICS, INC., priority 2022, published 2026).
Like-named read-outs stand apart in the source and are kept apart here.

T1: ALPL transcript variant 2 that lacks the ER signal (Homo sapiens, UniProt P05186)
T1 construct: expressed in transfected cells; host or cells: HEK 293T
T1 sequence (P05186 1-469 isoform P05186-3): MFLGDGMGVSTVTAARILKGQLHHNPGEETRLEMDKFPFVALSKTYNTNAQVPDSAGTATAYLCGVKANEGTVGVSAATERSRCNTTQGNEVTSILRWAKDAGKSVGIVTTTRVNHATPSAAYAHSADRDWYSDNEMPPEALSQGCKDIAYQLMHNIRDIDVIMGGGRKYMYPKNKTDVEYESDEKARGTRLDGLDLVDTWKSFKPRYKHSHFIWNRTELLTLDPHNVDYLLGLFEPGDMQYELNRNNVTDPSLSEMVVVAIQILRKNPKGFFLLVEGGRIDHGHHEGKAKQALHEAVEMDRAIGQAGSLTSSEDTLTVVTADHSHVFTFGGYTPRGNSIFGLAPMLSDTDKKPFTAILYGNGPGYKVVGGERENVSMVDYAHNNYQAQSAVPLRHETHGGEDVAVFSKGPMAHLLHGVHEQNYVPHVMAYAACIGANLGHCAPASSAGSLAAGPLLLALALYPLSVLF


Legend:
[1] = system: GPI anchored proteins (endogenous ALPL) on HeLa cells; test: Transduction of HeLa cells after PI/PLC removal of GPI anchored proteins; assay type: cell-based, human; settings: 1E4 VG/cell
Procedure: Endogenous ALPL was also removed from the surface of HeLa cells by treatment with increasing concentrations phosphatidylinositol-specific phospholipase C (PI/PLC), which cleaves GPI anchored proteins (0, 1, 3, 6, or 10 U/mL), for 1.5 hours at 37° C. Following PI/PLC treatment, cells were incubated with 1E4 VG/cell for three hours of AAV particles comprising the TTM-002 capsid variant or AAV particles comprising an AAV9 control capsid, cells were then washed to remove free virus, and luciferase activity was measured 24 hours post-transduction (RLU).

[2] = molecular target: T1, ALPL transcript variant 2 that lacks the ER signal; test: Transduction assay in HEK 293T cells expressing ALPL with deletion of the ER localization signal; assay type: cell-based; settings: luciferase, relative to pCMV6
Procedure: (§1) To determine if deletion of the endoplasmic reticulum (ER) localization signal of ALPL affected transduction of the TTM-001 and TTM-002 capsid variants, HEK 293T cells were transfected via calcium phosphate transfection with a plasmid expressing ALPL, ALP with a deletion of the ER localization signal (ALPL transcript variant 2 that lacks the ER signal (NM_001127501, which is incorporated by reference herein)), or a pCMV6 negative control. At 24 hours post-transfection, the HEK 293T cells expressing the ALPL receptor were transduced with an AAV particle comprising the TTM-001 capsid variant, the TTM-002 capsid variant, or an AAV9 capsid control, expressing a GFP payload. At 24-hours post-transduction, luciferase activity (RLU) was measured to quantify AAV cellular transduction. Data was normalized to fold change in luciferase activity (RLU) compared to the pCMV6 control.

[3] = system: HEK 293T cells transfected with pCMV6 negative control; assay type: cell-based; settings: for Luciferase Activity (fold change relative to pCMV6 transfected cells): pCMV6 transfected cells (negative control, reference); for Luciferase Activity (RLU): Table 30, pCMV6 transfected cells
Procedure: Briefly, a transduction assay was performed in that HEK 293T cells were transfected via calcium phosphate transfection with a plasmid expressing ALPL, an AAVR positive control, or a pCMV6 negative control (250 ng or 500 ng of plasmid). AAVR is a universal AAV entry factor involved in AAV transduction. […] At 24-hours post-transduction, GFP expression and luciferase activity were measured to quantify and observe AAV cellular transduction. […] The TTM-002, TTM-006, TTM-018, and TTM-019 capsid variants all comprised the SPH motif immediately subsequent to position 455, numbered relative to SEQ ID NO: 138 and a positive residue in one of the next three residues subsequent to the SPH motif.
Three isoforms of ALPL exist, isoform 1 (Alkaline phosphatase, placental-like 2 (ALPPL2), NM_031313, which is incorporated by reference herein), isoform 2 (alkaline phosphatase, placental (ALPP), NM_001632, which is incorporated by reference herein), and isoform 3 (alkaline phosphatase, intestinal (ALPLI), NM_001631, which is incorporated by reference herein), that can also be expressed on cell surfaces via a GPI-anchor. […] The transduction assay described above was repeated with the three isoforms. HEK 293T cells were transfected via calcium phosphate transfection with a plasmid expressing ALPL, isoform 1 of ALPL, isoform 2 of ALPL, isoform 3 of ALPL, an AAVR positive control, or a pCMV6 negative control. At 24 hours post-transfection, the HEK 293T cells expressing the ALPL receptor were transduced with an AAV particle comprising the TTM-001 capsid variant or the TTM-002 capsid variant, expressing a Luc2-GFP payload. At 24-hours post-transduction, luciferase activity (RLU) was measured to quantify AAV cellular transduction.
as §1
To determine if the TTM-001 and TTM-002 capsid variants could bind to both the human ALPL protein (NM_000478.6, which is incorporated by reference herein) and the mouse ALPL ortholog (NM_001287172.1, which is incorporated by reference herein), HEK 293T cells were transfected via calcium phosphate transfection with a plasmid expressing human ALPL, the murine ortholog of ALPL, or a pCMV6 negative control. At 24 hours post-transfection, the HEK 293T cells expressing the ALPL receptor were transduced with an AAV particle comprising the TTM-001 capsid variant, the TTM-002 capsid variant, or an AAV9 control capsid protein, expressing a Luc2-GFP payload. At 24-hours post-transduction, luciferase activity (RLU) was measured to quantify AAV cellular transduction.
AAV entry factor involved in AAV transduction), or a pCMV6 negative control.

[4] = Table 33, Cells transfected with pCMV6 (reference)
[5] = Table 34, Cells transfected with pCMV6 (reference)

| Molecule | Transduction in HeLa as measured by luciferase assay (RLU) following treatment with PI/PLC ([1]; PI/PLC 0 U/mL) | Transduction in HeLa as measured by luciferase assay (RLU) following treatment with PI/PLC ([1]; PI/PLC 1 U/mL) | Transduction in HeLa as measured by luciferase assay (RLU) following treatment with PI/PLC ([1]; PI/PLC 3 U/mL) | Transduction in HeLa as measured by luciferase assay (RLU) following treatment with PI/PLC ([1]; PI/PLC 6 U/mL) | Transduction in HeLa as measured by luciferase assay (RLU) following treatment with PI/PLC ([1]; PI/PLC 10 U/mL) | increase in transduction in cells expressing ALPL with deleted ER localization signal [2] | Luciferase Activity (fold change relative to pCMV6 transfected cells) ([3]; Table 27) | Luciferase Activity (RLU) [3] | Fold change in luciferase activity relative to the pCMV6 control cells [3, 4] | Fold change in luciferase activity relative to the pCMV6 control cells [3, 5] | Luciferase Activity (fold change relative to pCMV6 transfected cells) ([3]; Table 28) | Fold change in luciferase activity relative to the pCMV6 control cells ([3]; Table 35, Receptor pCMV6 (reference)) | transduction after PI/PLC treatment ([1]; HeLa, luciferase 24 hours) |
| --- | --- | --- | --- | --- | --- | --- | --- | --- | --- | --- | --- | --- | --- |
| AAV9: wild-type AAV9 control capsid [reference compound] | 239.3 RLU | 193.7 RLU | 222 RLU | 207.7 RLU | 212 RLU |  |  |  |  |  |  |  |  |
| TTM-001: AAV9 capsid variant comprising SPHSKA (SEQ ID NO: 941) in loop IV (protein) chain 1: MAADGYLPDWLEDNLSEGIREWWALKPGAPQPKANQQHQDNARGLVLPGYKYLGPGNGLDKGEPVNAADAAALEHDKAYDQQLKAGDNPYLKYNHADAEFQERLKEDTSFGGNLGRAVFQAKKRLLEPLGLVEEAAKTAPGKKRPVEQSPQEPDSSAGIGKSGAQPAKKRLNFGQTGDTESVPDPQPIGEPPAAPSGVGSLTMASGGGAPVADNNEGADGVGSSSGNWHCDSQWLGDRVITTSTRTWALPTYNNHLYKQISNSTSGGSSNDNAYFGYSTPWGYFDFNRFHCHFSPRDWQRLINNNWGFRPKRLNFKLFNIQVKEVTDNNGVKTIANNLTSTVQVFTDSDYQLPYVLGSAHEGCLPPFPADVFMIPQYGYLTLNDGSQAVGRSSFYCLEYFPSQMLRTGNNFQFSYEFENVPFHSSYAHSQSLDRLMNPLIDQYLYYLSKTINGSGSPHSKAQNQQTLKFSVAGPSNMAVQGRNYIPGPSYRQQRVSTTVTQNNNSEFAWPGASSWALNGRNSLMNPGPAMASHKEGEDRFFPLSGSLIFGKQGTGRDNVDADKVMITNEEEIKTTNPVATESYGQVATNHQSAQAQAQTGWVQNQGILPGMVWQDRDVYLQGPIWAKIPHTDGNFHPSPLMGGFGMKHPPPQILIKNTPVPADPPTAFNKDKLNSFITQYSTGQVSVEIEWELQKENSKRWNPEIQYTSNYYKSNNVEFAVNTEGVYSEPRPIGTRYLTRNL chain 2: GSGSPHSKAQNQQT |  |  |  |  |  | did not occur | 1 fold | 5,212 RLU | 1 fold | 1 fold |  |  |  |
| TTM-002: AAV9 capsid variant comprising HDSPHK (SEQ ID NO: 2) in loop IV (protein) chain 1: MAADGYLPDWLEDNLSEGIREWWALKPGAPQPKANQQHQDNARGLVLPGYKYLGPGNGLDKGEPVNAADAAALEHDKAYDQQLKAGDNPYLKYNHADAEFQERLKEDTSFGGNLGRAVFQAKKRLLEPLGLVEEAAKTAPGKKRPVEQSPQEPDSSAGIGKSGAQPAKKRLNFGQTGDTESVPDPQPIGEPPAAPSGVGSLTMASGGGAPVADNNEGADGVGSSSGNWHCDSQWLGDRVITTSTRTWALPTYNNHLYKQISNSTSGGSSNDNAYFGYSTPWGYFDFNRFHCHFSPRDWQRLINNNWGFRPKRLNFKLFNIQVKEVTDNNGVKTIANNLTSTVQVFTDSDYQLPYVLGSAHEGCLPPFPADVFMIPQYGYLTLNDGSQAVGRSSFYCLEYFPSQMLRTGNNFQFSYEFENVPFHSSYAHSQSLDRLMNPLIDQYLYYLSKTINGHDSPHKSGQNQQTLKFSVAGPSNMAVQGRNYIPGPSYRQQRVSTTVTQNNNSEFAWPGASSWALNGRNSLMNPGPAMASHKEGEDRFFPLSGSLIFGKQGTGRDNVDADKVMITNEEEIKTTNPVATESYGQVATNHQSAQAQAQTGWVQNQGILPGMVWQDRDVYLQGPIWAKIPHTDGNFHPSPLMGGFGMKHPPPQILIKNTPVPADPPTAFNKDKLNSFITQYSTGQVSVEIEWELQKENSKRWNPEIQYTSNYYKSNNVEFAVNTEGVYSEPRPIGTRYLTRNL chain 2: GHDSPHKSGQNQQT | 1731 RLU | 474 RLU | 441 RLU | 396.7 RLU | 239.3 RLU | did not occur | 1 fold | 2,894 RLU | 1 fold | 1 fold | 1 fold | 1.0 fold | significantly decreased transduction |
